Variants at the floor of the assay were thinned out.
B1: TPR 5TU (parent)
chain: GGAUCUUCUCGAUCUAACAAAAAAGACAAAUCUGCCACAAAGCUUGAGAGCAUCUUCGGAUGCAGAGGCGGCAGCCUUCGGUGGCGCGAUAGCGCCAACGUUCUCAACUAUGACACGCAAAACGCGUGCUCCGUUGAAUGGAGUUUAUCAUG

Variants of: B1
Experiment: polymerase ribozyme fitness, log enrichment relative to wild type (log ratio); higher = more active; in vitro selection for triplet polymerase activity
Outline: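 The heterodimeric triplet polymerase ribozyme's subunits were each mutagenized into PCR-built libraries and transcribed. Every library was selected once, in triplicate, by annealing with a biotinylated primer, the partner subunit and triplets, incubating frozen at −7 °C, gel-excising extended constructs, capturing on streptavidin beads and running RT-PCR. Input and output libraries were Illumina-sequenced, with genotypes kept only at ≥10 input reads and ≥1 read per output. Fitness, from inverse-variance-weighted replicate averages, is the base-2 logarithm of genotype enrichment over wild-type enrichment.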

| Variant | polymerase ribozyme fitness (log ratio) |
| --- | --- |
| C69U G71U C87U A89C | -3.31 |
| C69A G71U | -0.808 |
| C63U C85U C95A | -0.621 |
| C69U C75U G92A U104G G133U C149U | ≤ -4.2 |
| G67A C72A A142U | ≤ -4.2 |
| C69A G84A U104G C125U G126A A142C | ≤ -4.2 |
| G68C C93G C131A | ≤ -4.2 |
| C69U C132G G140U | -1 |
| G68U C79A U102G A119G | ≤ -4.2 |
| C69G C87A A91C G126A | ≤ -4.2 |
| G67A A98U U139C U148A | ≤ -4.2 |
| C69G C72U | -2.71 |
| A66G C69A G84U A138U | ≤ -4.2 |
| A64C G88U A150C | ≤ -4.2 |
| C63U G86A | -2.99 |
| C63U C75U C76U G80A U82A C108G C114U U148C | ≤ -4.2 |
| C63U C69A C87A G140C | ≤ -4.2 |
| A64U A121C G143A | ≤ -4.2 |
| G67C | -3.97 |
| G67U | -2.55 |
| G67A | -3.22 |
| C69G C76G C96A A138G | ≤ -4.2 |
| C69G C103G C116U | -2.03 |
| G68U G128U | ≤ -4.2 |

| Variant | polymerase ribozyme fitness (log ratio) |
| --- | --- |
| A64C C85A C118G A121C | ≤ -4.2 |
| A66U G88A U145G U148C A150C | ≤ -4.2 |
| C69A G81U G84U | ≤ -4.2 |
| G68C G88U U104G C114U U127C | ≤ -4.2 |
| G67C C69G A91U | ≤ -4.2 |
| G68C C85G G136C | ≤ -4.2 |
| A66G G81U C87G C99U U104G U134A A142U | ≤ -4.2 |
| G68C C93G | ≤ -4.2 |
| G68A A91C A120G A147C | ≤ -4.2 |
| A64U C87U G100C U135G A150G | ≤ -4.2 |
| A66G G68C U102A | ≤ -4.2 |
| G68C U78A | ≤ -4.2 |
| C63U C85U C87U | -0.425 |
| C69G C72U U134A | ≤ -4.2 |
| A64G G67U G84U C103A G112C A115U U146C | ≤ -4.2 |
| C69G G86C A121C | ≤ -4.2 |
| C69A A73C G86A A119C U145A | ≤ -4.2 |
| G68U C85G | ≤ -4.2 |
| C63U C76A C103G U146G U148G | ≤ -4.2 |
| G68U G94C C95A A115U G136U | ≤ -4.2 |
| G68A C79U U139G U146C | ≤ -4.2 |
| C69A C85G A121C | -3.43 |
| C69U G84C C132G G143A | ≤ -4.2 |
| G67C G68A C85U C99A A115U | ≤ -4.2 |

| Variant | polymerase ribozyme fitness (log ratio) |
| --- | --- |
| G68A C96U C132G | ≤ -4.2 |
| A64G G68A | ≤ -4.2 |
| C63U C87G | -4.05 |
| C69A G70A | -4.19 |
| A64G G83U C118A A138G | ≤ -4.2 |
| C69G C85U U101G | -1.25 |
| C69U C76U A97U U109G G112C C125A | ≤ -4.2 |
| G67C G83A C123G | ≤ -4.2 |
| G68U C103U G141C | ≤ -4.2 |
| C69A G143U | -3.34 |
| G65C A66C G81A C85G A121G | -4.16 |
| C69U A119U | -1.57 |
| G67C G84A C99U C105A A115C A137C G141A | ≤ -4.2 |
| G68C A122C | ≤ -4.2 |
| A66C G71C G84U | ≤ -4.2 |
| G67C G80C G92A C103A C118G G133A | ≤ -4.2 |
| C69G | -1.51 |
| C69U | -1.03 |
| C69A | -1.57 |
| C69U C87A G141U G143A | ≤ -4.2 |
| C69A G84A | -2.31 |
| A66G G83U | -3.62 |
| G67C G71C G86A A107U A121U U144G | ≤ -4.2 |
| G68A G92C | -4.16 |

| Variant | polymerase ribozyme fitness (log ratio) |
| --- | --- |
| C69U G100A A137C | ≤ -4.2 |
| C69U C85G | -2.16 |
| C69U C85A | -3.16 |
| G65U A66C U77A A147C | ≤ -4.2 |
| C63U G68A | ≤ -4.2 |
| G68A C85U A97U A107U G128A C132U | ≤ -4.2 |
| G68A G86A C87G | ≤ -4.2 |
| C69G C85A G94U | -1.01 |
| A66C C85G G141A U146C | ≤ -4.2 |
| A64C C69U G84A G136U G141U | ≤ -4.2 |
| A64C G65A G84U C116G U139C | ≤ -4.2 |
| G65A A97G C99G | -3.75 |
| A66G G92C C95A C103U C108G U151C | ≤ -4.2 |
| G68C G83A | ≤ -4.2 |
| A66C G70A G71A G100U G143A U148G | ≤ -4.2 |
| C69U C118U | -1.4 |
| G68C A89G A120G A147U U148G | ≤ -4.2 |
| C69G G126U C131A | ≤ -4.2 |
| C63U A119U U144C | -0.319 |
| A66C G74U G81C C87A C118A G124A | ≤ -4.2 |
| G67C G83A | ≤ -4.2 |
| C69U G128C U130C C132G U135A A138C | ≤ -4.2 |
| G65C A89C G92A U102G C116U A137G | ≤ -4.2 |
| C69U C96G C125U | -1.78 |

| Variant | polymerase ribozyme fitness (log ratio) |
| --- | --- |
| A64C A107C C131A | ≤ -4.2 |
| G67C G86C C96A G112U A113U G126U | ≤ -4.2 |
| C69U G70A C99A G100A | ≤ -4.2 |
| A66C G84A C87U | ≤ -4.2 |
| C69A A91C A122U A142C | ≤ -4.2 |
| C69G A73C U77C G84A C118U C131A U139G | ≤ -4.2 |
| A64C A115U A142U G143U | ≤ -4.2 |
| C69A A73G G92C | -1.54 |
| G67C G84A U139A G140U | ≤ -4.2 |
| A66G U77A G83U U104A G117U | ≤ -4.2 |
| C69G G88A U90G U146A | ≤ -4.2 |
| C69G A119U | -1.72 |
| A66G G100C A107C C114U A122C G133C | ≤ -4.2 |
| C69A U139C G140A U148A | ≤ -4.2 |
| C63U C85U A113U U146A | -3.03 |
| A66G C93U A107U A138U U139A | ≤ -4.2 |
| G68A U77A G81A U111A G126U | ≤ -4.2 |
| G68A C69G G80A U104G | ≤ -4.2 |
| G68C C103U | ≤ -4.2 |
| G68C G83U G133U A137C | ≤ -4.2 |
| G67U A120U | -2.15 |
| C69G C99A A115G | -3.71 |
| A66G C76U C85A C96U | ≤ -4.2 |
| G68A C72U | -4.15 |

| Variant | polymerase ribozyme fitness (log ratio) |
| --- | --- |
| A64G A137G | ≤ -4.2 |
| C63U G65A A73U A115G U134G | ≤ -4.2 |
| C63U | -0.0732 |
| A64C G83C A89U U134A G141A | ≤ -4.2 |
| G65C U90C | ≤ -4.2 |
| C69G U101G G133U | -3.95 |
| A66C C85G | -4.16 |
| C63U C95U | -0.692 |
| G68C C99G A106G C129U | ≤ -4.2 |
| G65A C69G U78A U90G C96A G100A C108A U145A | ≤ -4.2 |
| A66G A106G U139A | ≤ -4.2 |
| C69U G84A A106C | -2.41 |
| G68A A122G G133C | ≤ -4.2 |
| G65U A73G G141A | ≤ -4.2 |
| C69U G84U G133C | -3.62 |
| A66G C93U C108U C132G C149A | ≤ -4.2 |
| A66G C105U | -3.63 |
| G67A C96A | -3.46 |
| G67U G94C A119C U134G A147C | ≤ -4.2 |
| C69U G126A | 0.958 |
| C63U U102A U104G G124A | -2.05 |
| A64U C69U | ≤ -4.2 |
| A66C G71A A73G G83C U151A | ≤ -4.2 |
| C69G C93A | ≤ -4.2 |

| Variant | polymerase ribozyme fitness (log ratio) |
| --- | --- |
| C69G C93G | -3.97 |
| C69A A73G | -2.98 |
| G68A C93U A98U G117U | ≤ -4.2 |
| G68U U101C | -4.07 |
| G67C A73U A91G G136A A137G | ≤ -4.2 |
| C69A G83A G143U | -3.59 |
| C63U C75U U82A | 0.455 |
| C69G C85U G86A | -3.62 |
| A64G G86U | ≤ -4.2 |
| G65A G71U C85A | ≤ -4.2 |
| C69U C72U | -1.99 |
| C69A G117A | -0.631 |
| G65A C105U | -0.804 |
| G68A C87U C114A U144C | -4.11 |
| A66G C96A A98G G136U | ≤ -4.2 |
| A66C A91C | ≤ -4.2 |
| G68A C123U | -3.89 |
| G67C G92A C96U C118U | ≤ -4.2 |
| A66C A73C | ≤ -4.2 |
| A64C A73U G84A U102G C116A | ≤ -4.2 |
| A66U A89G | ≤ -4.2 |
| A66C G92C C114U | ≤ -4.2 |
| A64G C99A G143A | ≤ -4.2 |

From the RNAGym collection of RNA variant scans (doi:10.1073/pnas.2313332121)
